Source: US20210054088A1 (Eli Lilly, published 2021)
Like-named read-outs stand apart in the source and are kept apart here. One block for each binder: values may come before it.

Tests used:
[1] = molecular target: human CD137 on stably transfected human 293 cells (human, UniProt Q07011 24-255); experiment: cell-based or functional assay
[2] = molecular target: T1, Recombinant human extracellular CD137-Fc protein (R&D Systems) (human, UniProt Q07011 24-186); experiment: SPR (Biacore T200), CD137-Fc immobilised, 25° C., 1:1 Langmuir fit
T1 construct: Bought protein; also called human CD137-Fc; not shown: Fc part of the bought fusion protein

[3] = molecular target: T2, cynomolgus monkey CD137 on stably transfected human 293 cells (cynomolgus monkey, UniProt A9YYE7 24-254); experiment: flow cytometry on 293 cells expressing cynomolgus monkey CD137, antibody at 0.5 micrograms/mL; MFI of antibody / MFI of control IgG
T2 construct: whole, on cells; also called Cyno-CD137
T2 sequence (A9YYE7 entry or part of it): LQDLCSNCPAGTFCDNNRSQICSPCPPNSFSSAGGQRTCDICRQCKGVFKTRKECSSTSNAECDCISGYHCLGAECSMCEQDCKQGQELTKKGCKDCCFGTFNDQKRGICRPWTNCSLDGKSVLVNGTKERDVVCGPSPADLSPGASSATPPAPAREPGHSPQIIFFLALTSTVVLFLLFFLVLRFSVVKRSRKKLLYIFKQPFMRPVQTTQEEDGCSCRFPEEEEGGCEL

[4] = molecular target: T3, hCD137** ((human CD137 amino acids 22-164, ΔC121S)-AAA-FLAG) (human, UniProt Q07011 22-164); experiment: ELISA, coated hCD137**, anti-Fab detection
T3 construct: not shown: FLAG tag
T3 chain: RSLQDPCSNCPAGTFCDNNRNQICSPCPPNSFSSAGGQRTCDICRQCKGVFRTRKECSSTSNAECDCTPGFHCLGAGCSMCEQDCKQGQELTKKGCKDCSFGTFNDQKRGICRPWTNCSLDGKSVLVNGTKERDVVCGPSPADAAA

[5] = molecular target: T4, human CD137-ECD-C121S-Fc mutant N42S (human, UniProt Q07011 24-186); experiment: point ELISA on coated CD137-Fc mutant; % of binding relative to wild-type hCD137
T4 construct: not shown: Fc part
T4 sequence (Q07011 24-186 N42S/C121S): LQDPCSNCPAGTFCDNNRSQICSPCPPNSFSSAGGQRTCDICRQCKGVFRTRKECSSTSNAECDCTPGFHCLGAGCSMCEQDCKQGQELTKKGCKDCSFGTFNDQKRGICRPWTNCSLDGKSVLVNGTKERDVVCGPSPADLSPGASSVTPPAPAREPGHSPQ

[6] = molecular target: T5, human CD137-ECD-C121S-Fc mutant P27L (human, UniProt Q07011 24-186); experiment: point ELISA, coated CD137-Fc mutant; mean of absorbance normalised to wild type over eight concentrations;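 also: antibody binding to plate-adsorbed CD137-Fc variants, detected with an HRP-labelled anti-Fab secondary antibody and TMB colour development read as absorbance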
T5 construct: not shown: Fc part
T5 sequence (Q07011 24-186 P27L/C121S): as the sequence (Q07011 24-186 N42S/C121S) above, with P4L, S19N counted along it

[7] = molecular target: T6, human CD137-ECD-C121S-Fc mutant D63N (human, UniProt Q07011 24-186); experiment: as above
T6 construct: not shown: Fc part
T6 sequence (Q07011 24-186 D63N/C121S): as the sequence (Q07011 24-186 N42S/C121S) above, with S19N, D40N counted along it

[8] = molecular target: T7, human CD137-ECD-C121S-Fc mutant Q67R (human, UniProt Q07011 24-186); experiment: as above
T7 construct: not shown: Fc part
T7 sequence (Q07011 24-186 Q67R/C121S): as the sequence (Q07011 24-186 N42S/C121S) above, with S19N, Q44R counted along it

[9] = molecular target: T8, human CD137-ECD-C121S-Fc mutant Q67V (human, UniProt Q07011 24-186); experiment: as above
T8 construct: not shown: Fc part
T8 sequence (Q07011 24-186 Q67V/C121S): as the sequence (Q07011 24-186 N42S/C121S) above, with S19N, Q44V counted along it

[10] = molecular target: T9, human CD137-ECD-C121S-Fc mutant A97P (human, UniProt Q07011 24-186); experiment: as above
T9 construct: not shown: Fc part
T9 sequence (Q07011 24-186 A97P/C121S): as the sequence (Q07011 24-186 N42S/C121S) above, with S19N, A74P counted along it

[11] = molecular target: T10, human CD137-ECD-C121S-Fc mutant G98K (human, UniProt Q07011 24-186); experiment: as above
T10 construct: not shown: Fc part
T10 sequence (Q07011 24-186 G98K/C121S): as the sequence (Q07011 24-186 N42S/C121S) above, with S19N, G75K counted along it

[12] = molecular target: T11, human CD137-ECD-C121S-Fc mutant G98Q (human, UniProt Q07011 24-186); experiment: as above
T11 construct: not shown: Fc part
T11 sequence (Q07011 24-186 G98Q/C121S): as the sequence (Q07011 24-186 N42S/C121S) above, with S19N, G75Q counted along it

[13] = molecular target: T12, human CD137-ECD-C121S-Fc mutant S100T (human, UniProt Q07011 24-186); experiment: as above
T12 construct: not shown: Fc part
T12 sequence (Q07011 24-186 S100T/C121S): as the sequence (Q07011 24-186 N42S/C121S) above, with S19N, S77T counted along it

[14] = molecular target: T13, human CD137-ECD-C121S-Fc mutant M101R (human, UniProt Q07011 24-186); experiment: as above
T13 construct: not shown: Fc part
T13 sequence (Q07011 24-186 M101R/C121S): as the sequence (Q07011 24-186 N42S/C121S) above, with S19N, M78R counted along it

[15] = molecular target: T14, human CD137-ECD-C121S-Fc mutant Q104K (human, UniProt Q07011 24-186); experiment: as above
T14 construct: not shown: Fc part
T14 sequence (Q07011 24-186 Q104K/C121S): as the sequence (Q07011 24-186 N42S/C121S) above, with S19N, Q81K counted along it

[16] = molecular target: T15, human CD137-ECD-C121S-Fc mutant K114E (human, UniProt Q07011 24-186); experiment: as above
T15 construct: not shown: Fc part
T15 sequence (Q07011 24-186 K114E/C121S): as the sequence (Q07011 24-186 N42S/C121S) above, with S19N, K91E counted along it

[17] = molecular target: T16, human CD137-ECD-C121S-Fc mutant K115Q (human, UniProt Q07011 24-186); experiment: as above
T16 construct: not shown: Fc part
T16 sequence (Q07011 24-186 K115Q/C121S): as the sequence (Q07011 24-186 N42S/C121S) above, with S19N, K92Q counted along it

[18] = molecular target: T1, Recombinant human extracellular …; experiment: ELISA, coated human CD137-Fc
FcγRI = FcγRI (UniProt P12314 16-288, limits assumed); experiment: MSD assay, Fcγ receptor coated
Chain of FcγRI (P12314 16-288 limits assumed): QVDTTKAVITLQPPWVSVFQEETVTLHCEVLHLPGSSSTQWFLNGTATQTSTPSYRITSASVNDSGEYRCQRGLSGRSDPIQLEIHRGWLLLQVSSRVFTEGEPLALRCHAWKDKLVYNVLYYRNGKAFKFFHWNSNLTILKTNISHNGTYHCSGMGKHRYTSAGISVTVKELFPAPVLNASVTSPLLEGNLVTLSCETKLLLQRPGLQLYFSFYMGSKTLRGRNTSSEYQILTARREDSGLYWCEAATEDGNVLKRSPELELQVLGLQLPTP

FcγRIIa(H) = molecular target: T17, FcγRIIa(H) (UniProt P12318 36-218, limits assumed); experiment: MSD assay, Fcγ receptor coated
T17 sequence (looked up): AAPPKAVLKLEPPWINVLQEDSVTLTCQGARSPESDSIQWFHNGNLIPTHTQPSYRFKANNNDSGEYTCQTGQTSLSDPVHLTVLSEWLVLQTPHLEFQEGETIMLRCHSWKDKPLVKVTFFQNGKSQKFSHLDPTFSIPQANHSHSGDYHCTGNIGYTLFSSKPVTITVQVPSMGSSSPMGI

FcγRIIb = molecular target: T18, FcγRIIb (UniProt P31994 43-217, limits assumed); experiment: MSD assay, Fcγ receptor coated
T18 sequence (looked up): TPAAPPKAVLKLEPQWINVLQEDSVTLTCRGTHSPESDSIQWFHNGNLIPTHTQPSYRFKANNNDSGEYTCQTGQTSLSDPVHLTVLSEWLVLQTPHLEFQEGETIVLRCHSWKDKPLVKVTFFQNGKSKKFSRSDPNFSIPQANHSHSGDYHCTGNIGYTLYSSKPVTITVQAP

FcγRIIIa(F) = FcγRIIIa(F) (UniProt P08637 17-208, limits assumed); experiment: MSD assay, Fcγ receptor coated
Chain of FcγRIIIa(F) (P08637 17-208 limits assumed): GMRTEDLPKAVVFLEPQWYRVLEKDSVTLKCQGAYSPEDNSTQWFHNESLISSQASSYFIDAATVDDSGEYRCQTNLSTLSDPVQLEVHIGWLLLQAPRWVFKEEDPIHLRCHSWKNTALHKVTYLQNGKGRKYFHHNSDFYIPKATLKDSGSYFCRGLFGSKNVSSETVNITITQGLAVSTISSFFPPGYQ

FcγRIIIa(V) = FcγRIIIa(V) (UniProt P08637 17-208, limits assumed); experiment: MSD assay, Fcγ receptor coated
Chain of FcγRIIIa(V) (P08637 17-208 F176V limits assumed): as the sequence (P08637 17-208 limits assumed) above, with F160V counted along it

Human C1q = Human C1q (human, UniProt P02745 23-245; P02746 28-253; P02747 29-245); experiment: ELISA, antibody coated, human C1q added
Chain of Human C1q (P02745 23-245 limits assumed, chain 1 of 3): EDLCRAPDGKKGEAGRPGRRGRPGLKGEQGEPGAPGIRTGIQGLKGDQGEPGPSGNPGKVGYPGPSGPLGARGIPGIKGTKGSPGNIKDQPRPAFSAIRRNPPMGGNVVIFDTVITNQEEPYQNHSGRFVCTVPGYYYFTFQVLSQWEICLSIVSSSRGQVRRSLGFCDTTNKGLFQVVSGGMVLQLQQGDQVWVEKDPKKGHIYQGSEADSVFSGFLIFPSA
Chain of Human C1q (P02746 28-253 limits assumed, chain 2 of 3): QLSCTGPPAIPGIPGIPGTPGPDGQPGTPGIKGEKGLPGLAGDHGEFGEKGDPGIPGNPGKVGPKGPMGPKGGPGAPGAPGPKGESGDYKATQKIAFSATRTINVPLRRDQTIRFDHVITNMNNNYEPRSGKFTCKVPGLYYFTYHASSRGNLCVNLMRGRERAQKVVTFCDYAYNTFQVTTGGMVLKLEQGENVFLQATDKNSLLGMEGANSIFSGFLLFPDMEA
Chain of Human C1q (P02747 29-245 limits assumed, chain 3 of 3): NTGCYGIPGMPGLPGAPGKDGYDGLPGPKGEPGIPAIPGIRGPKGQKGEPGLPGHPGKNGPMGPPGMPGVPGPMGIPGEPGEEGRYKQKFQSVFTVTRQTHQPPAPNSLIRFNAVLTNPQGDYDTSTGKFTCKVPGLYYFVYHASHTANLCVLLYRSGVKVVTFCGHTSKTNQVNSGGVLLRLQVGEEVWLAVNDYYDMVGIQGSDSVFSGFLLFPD

[19] = molecular target: T4, human CD137-ECD-C121S-Fc mutant N42S; experiment: point ELISA, coated CD137-Fc mutant; mean of absorbance normalised to wild type over eight concentrations;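 also: antibody binding to plate-adsorbed CD137-Fc variants, detected with an HRP-labelled anti-Fab secondary antibody and TMB colour development read as absorbance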
[20] = molecular target: T16, human CD137-ECD-C121S-Fc mutant K115Q; experiment: as above; remark: listed apart in the source
[21] = molecular target: T19, human CD137-ECD-C121S-Fc mutant R130A (human, UniProt Q07011 24-186); experiment: as above
T19 construct: not shown: Fc part
T19 sequence (Q07011 24-186 C121S/R130A): as the sequence (Q07011 24-186 N42S/C121S) above, with S19N, R107A counted along it

[22] = molecular target: T20, human CD137-ECD-C121S-Fc mutant R130H (human, UniProt Q07011 24-186); experiment: as above
T20 construct: not shown: Fc part
T20 sequence (Q07011 24-186 C121S/R130H): as the sequence (Q07011 24-186 N42S/C121S) above, with S19N, R107H counted along it

[23] = molecular target: T21, human CD137-ECD-C121S-Fc mutant I132V (human, UniProt Q07011 24-186); experiment: as above
T21 construct: not shown: Fc part
T21 sequence (Q07011 24-186 C121S/I132V): as the sequence (Q07011 24-186 N42S/C121S) above, with S19N, I109V counted along it

[24] = molecular target: T22, human CD137-ECD-C121S-Fc mutant R134Q (human, UniProt Q07011 24-186); experiment: as above
T22 construct: not shown: Fc part
T22 sequence (Q07011 24-186 C121S/R134Q): as the sequence (Q07011 24-186 N42S/C121S) above, with S19N, R111Q counted along it

Chain of human CD137 on stably transfected human 293 cells (Q07011 24-255 limits assumed): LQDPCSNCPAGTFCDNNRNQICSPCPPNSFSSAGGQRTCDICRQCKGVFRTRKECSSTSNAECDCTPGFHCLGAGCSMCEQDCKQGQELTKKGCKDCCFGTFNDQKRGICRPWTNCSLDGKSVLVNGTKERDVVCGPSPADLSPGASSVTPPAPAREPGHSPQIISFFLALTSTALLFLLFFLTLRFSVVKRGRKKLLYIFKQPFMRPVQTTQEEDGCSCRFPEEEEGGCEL

max activity, NF-kappaB luciferase reporter [1]: 63.4%
Kd [2]: 3.33 nM
koff [2]: 0.00536 s⁻¹
kon [2]: 1.61e+06 M⁻¹ s⁻¹
B1: Antibody A1 (antibody, human IgG1, kappa)
heavy: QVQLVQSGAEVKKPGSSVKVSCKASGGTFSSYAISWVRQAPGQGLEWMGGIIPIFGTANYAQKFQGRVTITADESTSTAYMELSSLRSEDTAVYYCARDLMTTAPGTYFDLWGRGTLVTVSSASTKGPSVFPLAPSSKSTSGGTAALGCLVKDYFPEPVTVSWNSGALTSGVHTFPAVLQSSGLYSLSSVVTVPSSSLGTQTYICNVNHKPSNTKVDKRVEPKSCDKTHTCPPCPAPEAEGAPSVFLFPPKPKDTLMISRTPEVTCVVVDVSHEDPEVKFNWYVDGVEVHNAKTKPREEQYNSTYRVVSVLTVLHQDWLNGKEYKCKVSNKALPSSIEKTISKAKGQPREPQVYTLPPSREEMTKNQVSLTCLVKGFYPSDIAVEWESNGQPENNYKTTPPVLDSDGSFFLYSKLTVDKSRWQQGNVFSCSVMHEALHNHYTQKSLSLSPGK
light: AIRMTQSPPSLSASVGDRVTITCQASQDIGNSLGWYQQKPGKAPKLVIFDASDLETGVPSRFSGSGSGTDFSLTISSLQPEDFATYYCQQGNSFPLTFGQGTRLEIKRTVAAPSVFIFPPSDEQLKSGTASVVCLLNNFYPREAKVQWKVDNALQSGNSQESVTEQDSKDSTYSLSSTLTLSKADYEKHKVYACEVTHQGLSSPVTKSFNRGEC
notes: Full length form; IgG1 Fc-null, kappa

MFI ratio [3]: 37
B2: PF83 (antibody, V domains shown)
VH: EVQLVQSGAEVKKPGESLRISCKGSGYSFSTYWISWVRQMPGKGLEWMGKIYPGDSYTNYSPSFQGQVTISADKSISTAYLQWSSLKASDTAMYYCARGYGIFDYWGQGTLVTVSS
VL: SYELTQPPSVSVSPGQTASITCSGDNIGDQYAHWYQQKPGQSPVLVIYQDKNRPSGIPERFSGSNSGNTATLTISGTQAMDEADYYCATYTGFGSLAVFGGGTKLTVLG
notes: Comparator anti-CD137 antibody, previously described in U.S. Pat. No. 8,337,850

max activity, NF-kappaB luciferase reporter [1]: 115%
EC50 [4]: 0.43 nM
binding result [5]: no binding
% of binding relative to wild-type hCD137 [6]: 85%
% of binding relative to wild-type hCD137 [7]: 100%
% of binding relative to wild-type hCD137 [8]: 100%
% of binding relative to wild-type hCD137 [9]: 100%
% of binding relative to wild-type hCD137 [10]: 100%
% of binding relative to wild-type hCD137 [11]: 100%
% of binding relative to wild-type hCD137 [12]: 100%
% of binding relative to wild-type hCD137 [13]: 100%
% of binding relative to wild-type hCD137 [14]: 100%
% of binding relative to wild-type hCD137 [15]: 100%
% of binding relative to wild-type hCD137 [16]: 100%
% of binding relative to wild-type hCD137 [17]: 100%
B3: BMS20H4.9 (antibody, human IgG4 S228P, kappa, V domains shown)
VH: QVQLQQWGAGLLKPSETLSLTCAVYGGSFSGYYWSWIRQSPEKGLEWIGEINHGGYVTYNPSLESRVTISVDTSKNQFSLKLSSVTAADTAVYYCARDYGPGNYDWYFDLWGRGTLVTVSS
VL: EIVLTQSPATLSLSPGERATLSCRASQSVSSYLAWYQQKPGQAPRLLIYDASNRATGIPARFSGSGSGTDFTLTISSLEPEDFAVYYCQQRSNWPPALTFGGGTKVEIKR
notes: Comparator anti-CD137 antibody, previously described in U.S. Pat. No. 7,288,638

max activity, NF-kappaB luciferase reporter [1]: 72.3%
Kd [2]: 5.36 nM
koff [2]: 0.00713 s⁻¹
kon [2]: 1.33e+06 M⁻¹ s⁻¹
B4: Antibody A2 (antibody, human IgG1, kappa)
heavy: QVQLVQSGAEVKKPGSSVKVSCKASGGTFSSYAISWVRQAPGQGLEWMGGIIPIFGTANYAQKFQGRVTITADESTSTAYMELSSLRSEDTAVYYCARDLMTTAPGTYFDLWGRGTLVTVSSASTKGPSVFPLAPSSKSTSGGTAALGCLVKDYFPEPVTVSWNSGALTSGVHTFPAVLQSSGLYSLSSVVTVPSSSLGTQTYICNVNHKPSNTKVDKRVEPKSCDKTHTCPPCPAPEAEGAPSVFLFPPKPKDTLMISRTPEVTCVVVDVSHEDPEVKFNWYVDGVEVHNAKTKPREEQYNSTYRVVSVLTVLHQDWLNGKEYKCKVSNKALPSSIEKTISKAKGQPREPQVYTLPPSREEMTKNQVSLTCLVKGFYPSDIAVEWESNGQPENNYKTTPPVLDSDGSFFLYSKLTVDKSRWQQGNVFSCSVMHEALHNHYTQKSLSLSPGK
light: IRMTQSPPSLSASVGDRVTITCQASQDIGNSLGWYQQKPGKAPKLVIFDASDLETGVPSRFSGSGSGTDFSLTISSLQPEDFATYYCQQGNSFPLTFGQGTRLEIKRTVAAPSVFIFPPSDEQLKSGTASVVCLLNNFYPREAKVQWKVDNALQSGNSQESVTEQDSKDSTYSLSSTLTLSKADYEKHKVYACEVTHQGLSSPVTKSFNRGEC
notes: Form lacking the N-terminal alanine of the light chain; IgG1 Fc-null, kappa

EC50 [18]: 0.027 nM
EC50 (FcγRI): > 5 nM
EC50 (FcγRIIa(H)): > 134 nM
EC50 (FcγRIIb): > 134 nM
EC50 (FcγRIIIa(F)): > 134 nM
EC50 (FcγRIIIa(V)): > 134 nM
EC50 [4]: 1.4 nM
EC50 (Human C1q): > 330 nM
Kd [2]: 4.67 nM
koff [2]: 0.00711 s⁻¹
kon [2]: 1.52e+06 M⁻¹ s⁻¹
% of binding relative to wild-type hCD137 [6]: 100%
% of binding relative to wild-type hCD137 [19]: 100%
% of binding relative to wild-type hCD137 [7]: 100%
% of binding relative to wild-type hCD137 [8]: 100%
% of binding relative to wild-type hCD137 [9]: 100%
% of binding relative to wild-type hCD137 [10]: 15%
% of binding relative to wild-type hCD137 [11]: 85%
% of binding relative to wild-type hCD137 [12]: 100%
% of binding relative to wild-type hCD137 [13]: 100%
% of binding relative to wild-type hCD137 [14]: 100%
% of binding relative to wild-type hCD137 [15]: 100%
% of binding relative to wild-type hCD137 [16]: 20%
% of binding relative to wild-type hCD137 [17]: 25%
% of binding relative to wild-type hCD137 [20]: 25%
% of binding relative to wild-type hCD137 [21]: 100%
% of binding relative to wild-type hCD137 [22]: 100%
% of binding relative to wild-type hCD137 [23]: 100%
% of binding relative to wild-type hCD137 [24]: 100%
MFI ratio [3]: 153
B5: Antibody A1/2 (antibody, human IgG1, kappa)
heavy: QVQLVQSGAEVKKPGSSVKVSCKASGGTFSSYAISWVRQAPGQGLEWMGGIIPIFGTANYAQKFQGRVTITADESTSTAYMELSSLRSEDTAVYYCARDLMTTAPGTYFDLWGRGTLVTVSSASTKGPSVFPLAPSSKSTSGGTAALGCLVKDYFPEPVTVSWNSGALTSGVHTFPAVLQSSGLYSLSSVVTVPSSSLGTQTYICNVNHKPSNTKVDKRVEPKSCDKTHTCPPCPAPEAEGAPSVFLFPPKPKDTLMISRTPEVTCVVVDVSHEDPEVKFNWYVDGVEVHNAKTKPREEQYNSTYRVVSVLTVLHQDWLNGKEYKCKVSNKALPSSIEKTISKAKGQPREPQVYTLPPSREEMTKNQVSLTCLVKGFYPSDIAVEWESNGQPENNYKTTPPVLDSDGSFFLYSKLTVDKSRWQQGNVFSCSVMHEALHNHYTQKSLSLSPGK
light: B4 light
notes: Human IgG1 Fc-null, kappa; also called Antibody 1/2
